The data set concerns the molecule itself. Nature of the data set: Coomassie-stained gel; self-association inferred from a band of about 17 kD against a 3.5 kD monomer.

B1: C-POD, CGGG(ARKKAAKA)4 (peptide)
peptide: CGGGARKKAAKAARKKAAKAARKKAAKAARKKAAKA
notes: Synthetic peptide with a 3.5 kD monomer; also called cysteine containing POD; cysteine-POD
Consider B1, for which the binding result was “binds”.

The record behind these values is US20100209447A1 (TUFTS UNIVERSITY, published 2010).
